This test deals with Recombinant SARS-CoV-2 S1 (SARS-CoV-2). As to the kind of experiment: MST.

B1: Recombinant L-SIGN/CD299 (receptor)
chain: QVSKVPSSLSQEQSEQDAIYQNLTQLKAAVGELSEKSKLQEIYQELTQLKAAVGELPEKSKLQEIYQELTRLKAAVGELPEKSKLQEIYQELTRLKAAVGELPEKSKLQEIYQELTRLKAAVGELPEKSKLQEIYQELTELKAAVGELPEKSKLQEIYQELTQLKAAVGELPDQSKQQQIYQELTDLKTAFERLCRHCPKDWTFFQGNCYFMSNSQRNWHDSVTACQEVRAQLVVIKTAEEQNFLQLQTSRSNRFSWMGLSDLNQEGTWQWVDGSPLSPSFQRYWNSGEPNNSGNEDCAEFSGSGWNDNRCDVDNYWICKKPAACFRDE
For orientation: Kd means the concentration at which binding is half-saturated. As for B1, the Kd stood at 3.27 nM.

B2: Recombinant DC-SIGN/CD209 (receptor)
chain: QVSKVPSSISQEQSRQDAIYQNLTQLKAAVGELSEKSKLQEIYQELTQLKAAVGELPEKSKLQEIYQELTRLKAAVGELPEKSKLQEIYQELTWLKAAVGELPEKSKMQEIYQELTRLKAAVGELPEKSKQQEIYQELTRLKAAVGELPEKSKQQEIYQELTRLKAAVGELPEKSKQQEIYQELTQLKAAVERLCHPCPWEWTFFQGNCYFMSNSQRNWHDSITACKEVGAQLVVIKSAEEQNFLQLQSSRSNRFTWMGLSDLNQEGTWQWVDGSPLLPSFKQYWNRGEPNNVGEEDCAEFSGNGWNDDKCNLAKFWICKKSAASCSRDEEQFLSPAPATPNPPPA
Take B2: the Kd was 3.76 nM.

The record behind these values is publication PMC8582233 (2021).
